Substitutions are numbered along the chain they refer to.
B1: SEQ ID NO: 385: GAT polypeptide (protein)
chain: MIEVKPINAEDTYEIRHRILRPNQPLEACKYEADLLGGTFHLGGYYRGKLISIASFHQAEHPELEGQKQYQLRGMATLEGNREQKAGSTLIRHAEELLRKKGADLLWCNARTSASGYYKKLGFSEQGEVYDVPPIGPHILMYKKLT
modifications: 6_17C5
notes: GAT polypeptide
B2: SEQ ID NO: 395: GAT polypeptide (protein)
chain: B1 chain with I19V, K30M, A33T, T39A, N81Y, I135V
modifications: 6_21F4
notes: GAT polypeptide
B3: SEQ ID NO: 411: GAT polypeptide (protein)
chain: B1 chain with K30M, A33T, G37R, T39A, P62S, N81Y, E128G, V132I, I135V
modifications: 6_7D1
notes: GAT polypeptide
B4: SEQ ID NO: 409: GAT polypeptide (protein)
chain: B1 chain with K30M, A33T, P62S, G80E, N81Y, T112I, E128G, V132I, I135V
modifications: 6_5G9
notes: GAT polypeptide
B5: SEQ ID NO: 413: GAT polypeptide (protein)
chain: B1 chain with A33T, F40L, P62S, N81Y, V132I, I135V
modifications: 6_9G11
notes: GAT polypeptide
B6: SEQ ID NO: 407: GAT polypeptide (protein)
chain: B1 chain with K30M, A33T, G80E, N81Y, V132I
modifications: 6_5D11
notes: GAT polypeptide
B7: SEQ ID NO: 388: GAT polypeptide (protein)
chain: B1 chain with V4A, K30M, A33T, N81Y, V132I, I135T
modifications: 6_19A10
notes: GAT polypeptide
B8: SEQ ID NO: 390: GAT polypeptide (protein)
chain: B1 chain with A33T, N81Y, V132I
modifications: 6_19C3
notes: GAT polypeptide
B9: SEQ ID NO: 389: GAT polypeptide (protein)
chain: B1 chain with K30M, A33T, G37R, T39A, P62S, N81Y, V132I, I135V
modifications: 6_19B6
notes: GAT polypeptide
B10: SEQ ID NO: 398: GAT polypeptide (protein)
chain: B1 chain with K30M, A33T, P62S, E79D, G80E, N81Y, V132I
modifications: 6_22H9
notes: GAT polypeptide
B11: SEQ ID NO: 394: GAT polypeptide (protein)
chain: B1 chain with A33T, P62S, N81Y, V132I
modifications: 6_20H5
notes: GAT polypeptide
B12: SEQ ID NO: 405: GAT polypeptide (protein)
chain: B1 chain with K30M, A33T, N81Y, V132I, I135V
modifications: 6_4A10
notes: GAT polypeptide
B13: SEQ ID NO: 391: GAT polypeptide (protein)
chain: B1 chain with A33T, F40L, N81Y, H93Q, E128G, V132I, I135V, K144E
modifications: 6_19C8
notes: GAT polypeptide
B14: SEQ ID NO: 270: GAT polypeptide (protein)
chain: B1 chain with K30M, A33T, G37R, I51V, G80E, N81Y, E128G, V132I, I135V
modifications: 10_15F4
notes: GAT polypeptide
B15: SEQ ID NO: 416: GAT polypeptide (protein)
chain: B1 chain with A33T, N81Y, E128G, V132I
modifications: 7_2A10
notes: GAT polypeptide
B16: SEQ ID NO: 401: GAT polypeptide (protein)
chain: B1 chain with I19V, K30M, A33T, Q69P, N81Y, V129I, V132I
modifications: 6_2H1
notes: GAT polypeptide
B17: SEQ ID NO: 271: GAT polypeptide (protein)
chain: B1 chain with A33T, N81Y, V132T, I135V
modifications: 10_17D1
notes: GAT polypeptide
B18: SEQ ID NO: 402: GAT polypeptide (protein)
chain: B1 chain with V4I, K30M, A33T, N81Y, V132I, I135V
modifications: 6_3D6
notes: GAT polypeptide
B19: SEQ ID NO: 392: GAT polypeptide (protein)
chain: B1 chain with K30M, A33T, G37R, P62S, E63D, G80E, N81Y, V132I, I135V
modifications: 6_20A7
notes: GAT polypeptide
B20: SEQ ID NO: 400: GAT polypeptide (protein)
chain: B1 chain with K30M, A33T, P62S, N81Y, L97I, E128G, V132I, I135V
modifications: 6_23H7
notes: GAT polypeptide
B21: SEQ ID NO: 415: GAT polypeptide (protein)
chain: B1 chain with K30M, A33T, G80E, N81Y, E128G, V132I
modifications: 7_1C4
notes: GAT polypeptide
B22: SEQ ID NO: 269: GAT polypeptide (protein)
chain: B1 chain with A33T, F40L, G80E, N81Y, V132I, I135T
modifications: 10_12D7
notes: GAT polypeptide
B23: SEQ ID NO: 408: GAT polypeptide (protein)
chain: B1 chain with K30M, A33T, G80E, N81Y, Y130H, V132I, I135V
modifications: 6_5F11
notes: GAT polypeptide
B24: SEQ ID NO: 397: GAT polypeptide (protein)
chain: B1 chain with K30M, A33T, G37E, P62S, N81Y, V132I, I135V
modifications: 6_22D9
notes: GAT polypeptide
B25: SEQ ID NO: 386: GAT polypeptide (protein)
chain: B1 chain with K30R, A33T, N81Y, T112I, V132I, I135V
modifications: 6_18C7
notes: GAT polypeptide
B26: SEQ ID NO: 412: GAT polypeptide (protein)
chain: B1 chain with K30M, A33T, N81Y, E128G, V132I, I135V
modifications: 6_8H3
notes: GAT polypeptide
B27: SEQ ID NO: 403: GAT polypeptide (protein)
chain: B1 chain with K30M, A33T, P62S, N81Y, V132I, I135V
modifications: 6_3G3
notes: GAT polypeptide
B28: SEQ ID NO: 406: GAT polypeptide (protein)
chain: B1 chain with I19V, K30M, A33T, S52G, N81Y, K119E, E125G, V132I
modifications: 6_4B1
notes: GAT polypeptide
B29: SEQ ID NO: 410: GAT polypeptide (protein)
chain: B1 chain with T12A, A33T, P62S, N81Y, E128G, V132I, I135V
modifications: 6_6D5
notes: GAT polypeptide
B30: SEQ ID NO: 387: GAT polypeptide (protein)
chain: B1 chain with H17X, K30M, A33T, N81Y, E128G, V132I, I135V
modifications: X: residue not identified in the source; ends and bridges not checked
notes: GAT polypeptide
B31: SEQ ID NO: 396: GAT polypeptide (protein)
chain: B1 chain with Q24R, K30M, A33T, E63G, Q67K, G80E, N81Y, E128G, V132I, I135V
modifications: 6_22C9
notes: GAT polypeptide
B32: SEQ ID NO: 404: GAT polypeptide (protein)
chain: B1 chain with K30M, A33T, G80E, N81Y, V132I, I135V
modifications: 6_3H2
notes: GAT polypeptide
B33: SEQ ID NO: 399: GAT polypeptide (protein)
chain: B1 chain with K30M, E32G, A33T, H61Q, N81Y, E128G, V132I, I135V
modifications: 6_23H3
notes: GAT polypeptide
B34: SEQ ID NO: 393: GAT polypeptide (protein)
chain: B1 chain with E10G, A33T, P62S, N81Y, E128G, V132I, I135V
modifications: 6_20A9
notes: GAT polypeptide
B35: SEQ ID NO: 414: GAT polypeptide (protein)
chain: MIEVKPINAEDTYEIRHRILRPNQPLEACMYETDLLGGTFHLGGYYRGKLVCIASFHKAEHSELEGQKQYQLRGMATLDGYREQKAGSTLIRHAEELLRKKGADLLWCNARTSVSGYYEKLGFSEQGEVYDIPPVGPHILMYKKLT
modifications: 6F1
notes: GAT polypeptide

Assay: Standard protocol for determination of kcat and KM (continuous spectrophotometric assay, Acetyl CoA hydrolysis at 235 nm)
Format: biochemical
Details: purified protein, about 23° C., 0.2 mM acetyl CoA; for Kcat: 20 mM HEPES pH 6.8, 10% ethylene glycol; for Km: pH 6.8, glyphosate 0.125 to 10 mM
Experimental: KM was calculated from the initial reaction rates obtained from concentrations of glyphosate ranging from 0.125 to 10 mM, using the Lineweaver-Burke transformation of the Michaelis-Menten equation. kcat/KM was determined by dividing the value determined for kcat by the value determined for KM.
Using this methodology, kinetic parameters for a number of GAT polypeptides exemplified herein were determined. For example, the kcat, KM and kcat/KM for the GAT polypeptide corresponding to SEQ ID NO:445 have been determined to be 322 min^−1, 0.5 mM and 660 mM^−1 min^−1, respectively, using the assay conditions described above. The kcat, KM and kcat/KM for the GAT polypeptide corresponding to SEQ ID NO:457 have been determined to be 118 min^−1, 0.1 mM and 1184 mM^−1 min^−1, respectively, using the assay conditions described above. The kcat, KM and kcat/KM for the GAT polypeptide corresponding to SEQ ID NO:300 have been determined to be 296 min^−1, 0.65 mM and 456 mM^−1 min^−1, respectively, using the assay conditions described above. One of skill in the art can use these numbers to confirm that a GAT activity assay is generating kinetic parameters for a GAT suitable for comparison with the values given herein. For example, the conditions used to compare the activity of GATs should yield the same kinetic constants for SEQ ID NO: 300, 445 and 457 (within normal experimental variance) as those reported herein, when the conditions are used to compare a test GAT with the GAT polypeptides exemplified herein. Kinetic parameters for a number of GAT polypeptide variants were determined according to this methodology and are provided in Table 3.

Row | Molecule | Kcat [s⁻¹] | Km [µM]
1 | B1 | 0.587 | 1300
2 | B2 | 0.405 | 700
3 | B3 | 0.328 | 500
4 | B4 | 0.597 | 1400
5 | B5 | 1.31 | 1300
6 | B6 | 0.253 | 1000
7 | B7 | 1.45 | 1900
8 | B8 | 0.385 | 1400
9 | B9 | 0.398 | 700
10 | B10 | 0.29 | 1100
11 | B11 | 0.325 | 800
12 | B12 | 0.917 | 1100
13 | B13 | 1.25 | 2000
14 | B14 | 0.627 | 1000
15 | B15 | 0.242 | 800
16 | B16 | 0.443 | 900
17 | B17 | 2.937 | 2200
18 | B18 | 0.695 | 1000

Row | Molecule | Kcat [s⁻¹] | Km [µM]
19 | B19 | 0.673 | 1000
20 | B20 | 0.77 | 1200
21 | B21 | 0.29 | 1100
22 | B22 | 1.29 | 1800
23 | B23 | 0.668 | 1900
24 | B24 | 0.732 | 1300
25 | B25 | 0.537 | 1200
26 | B26 | 0.745 | 1000
27 | B27 | 0.865 | 1000
28 | B28 | 0.45 | 1000
29 | B29 | 0.922 | 1000
30 | B30 | 0.717 | 1200
31 | B31 | 0.79 | 3200
32 | B32 | 0.953 | 1000
33 | B33 | 0.732 | 1100
34 | B34 | 0.752 | 1300
35 | B35 | 0.168 | 1800

Source: patent US8008547B2, “Glyphosate-N-acetyltransferase (GAT) genes” (E.I. duPont de Nemours, priority 2000, dated 2011)
